According to the DeepSol protein solubility set:

test: soluble on expression in E. coli; label from the status in PepcDB or PDB records

| Sequence | soluble on expression in E. coli |
| --- | --- |
| MGKGDSIIVAVRVRPFNDREKTRNCKLVIEMPDEETTVIRDPKTNDEKRFTYDHSYWSHDGFSEKKNGYLEPTDPHYADQRRVFEDLGRGVLANAWAGYNCSLFAYGQTGSGKSYSIVGFKNNKGIVPIVCEELFKQIADNKKKNMQFEVFVSMMEIYCEKVRDLLSSTPPPKGGLKVREHPKNGFYVENLTTVPVNSFKEIEAKIEEGTKSRTIAATQMNATSSRAHTIVKITFNQKSSKQAGGTSMKKSEINLVDLAGSERQSAAGTEGDRLKEGIVINQSLTTLGRVIKALHDSQKAKSGKKTQIPYRDSVLTCLLKNALGGNSKTIMIAAISPADINFEETLSTLRFADRAKSIKTNAVVNENQTERALRELREENLRLQSQIQGGTAGDASNEEIEKLRRQLAENQKEMEEMEKSWQQKIAEEAAKHASGASEKVEMEAKKKKMCHLWNLNEDPALTNVIVHFIPVGESVVGNKPTSSGNFIQMSGLSILPQHVTLKNDGNNQIHLSPCSEDLDIFINGKPVHGETQLQQNDRVFFGGNHLYVFNNPTKKGIRTDITYENAQAEIAQNHAAALGNRGLGGGSKRDLILEEELMSTLPLVQRANAMATELGRNVKFEIVLVSPEMRGLTSGLTEIWVKVHNISEDTYFLWEKSRFMNRYYGMQEMYEAKQDGSEDWNMPKERDPFYEPPDSPVFIASSVVFLQSLAYLIDVEEQFPIVDLSGQEIGLLTVGLSPCSTTGKELRGEYVEDPDQLIGKNIAFKVKVISAVGLPRRILKSNCKYRFFGSKKMTTTATVSGNTPAYGHEETFQFKPVTKEVADYLANSNLYITFWGTQRPRGASSRKNSISTIGSNEAREGPNKAKRVERLVHQAKTSENRNISVKALETVLKGVDDNENRKTRKQSMKKAGSTTIKSRSGSKKPKAK | not soluble |
| MGKHKVGAVFLAGVLAMGTVMTGCSGKDETEGKTVIEMVQYKPEAVDIFEQFQDEFNATHDDIYLKIDSPNDAMTILKTRFIREDNPDIIGIGGDINYSNFLDADMLMDISDFEGLNDIKEKYLEMNKDLEYVPKDGVYAVPYMANAAGILFNRDMFEEHGWEVPTTWTEFTNLCDQIQSEGIQPLYFGFKDTWTTLAPWNAIAVSLCDSDLTYQVNSGKTTFAENYREVAEKEKALLTYGQKDPVSQGYNDACTAFARGASAMFTIGSYAISQIKSVNPDMNIGSFVFPANEDADKNVLNSGNDLMFCVMKDCKNKEAAYEVLSYMLEDENVKKYLNAQSAVPCKKGDFEVTPELEEMRDYIENGIVADYQDHHYPSEMSVDAMIQTYLMDDSADATDTFMKRFDKEWIRYNRDIVAKVKAYEEGNDHE | not soluble |
| MGKKMVVALGGNAILSNDASAHAQQQALVQTSAYLVHLIKQGHRLIVSHGNGPQVGNLLLQQQAADSEKNPAMPLDTCVAMTQGSIGYWLSNALNQELNKAGIKKQVATVLTQVVVDPADEAFKNPTKPIGPFLTEAEAKEAMQAGAIFKEDAGRGWRKVVPSPKPIDIHEAETINTLIKNDIITISCGGGGIPVVGQELKGVEAVIDKDFASEKLAELVDADALVILTGVDYVCINYGKPDEKQLTNVTVAELEEYKQAGHFAPGSMLPKIEAAIQFVESQPNKQAIITSLENLGSMSGDEIVGTVVTK | soluble |
| MGKNLQALAQLYKNALLNDVLPFWENHSLDSEGGYFTCLDRQGKVYDTDKFIWLQNRQVWTFSMLCNQLEKRENWLKIARNGAKFLAQHGRDDEGNWYFALTRGGEPLVQPYNIFSDCFAAMAFSQYALASGEEWAKDVAMQAYNNVLRRKDNPKGKYTKTYPGTRPMKALAVPMILANLTLEMEWLLPQETLENVLAATVQEVMGDFLDQEQGLMYENVAPDGSHIDCFEGRLINPGHGIEAMWFIMDIARRKNDSKTINQAVDVVLNILNFAWDNEYGGLYYFMDAAGHPPQQLEWDQKLWWVHLESLVALAMGYRLTGRDACWAWYQKMHDYSWQHFADPEYGEWFGYLNRRGEVLLNLKGGKWKGCFHVPRAMYLCWQQFEALS | soluble |
| MGKTSRDKRDIYYRLAKENKWRARSAFKLMQIDDEFQILKGVRRAVDLCAAPGSWSQVLSKRLYEEDQEAKIVAIDLQPMAPIPGVIQLQGDITSVDTANQVIKHFSGEKSDIVICDGAPDVTGIHSLDEFMQAELILAAFNITSHVLKEGGNFLAKIFRSRNSSLLYAQMKKYFKKVYLAKPRSSRQSSCEAFVLCLDYSPPEGFVPTMGKTSLDATDASAISPDIIDGFVTCGDLSGWDSEKSYPLDIDACFPKGEIDEEQKKRYEFKDVVQPPTDPAYKAALDKKKSGVFAKMSADLNRQLKAELSRGKDQKKTPAENVPSVEELEKAAEKFQL | not soluble |
| MGKYFGTDGVRGVANKELTPELAFKIGRFGGYVLTKDTDRPKVIIGRDTRISGHMLEGALVAGLLSTGAEVMRLGVISTPGVAYLTKALDAQAGVMISASHNPVQDNGIKFFGSDGFKLTDEQEAEIEALLDKEVDELPRPTGTNLGQVSDYFEGGQKYLQYIKQTVEEDFSGLHIALDCAHGATSSLAPYLFADLEADISTMGTSPNGMNINDGVGSTHPEVLAELVKEKGADIGLAFDGDGDRLIAVDEKGNIVDGDQIMFICAKYMKETGQLKHNTVVSTVMSNLGFYKALEANGITSDKTAVGDRYVMEEMKRGGYNLGGEQSGHIILLDYITTGDGMLSALQLVNIMKMTKKPLSELAGEMTKFPQLLVNVRVTDKKLALENEKIKEIIRVVEEEMNGDGRILVRPSGTEPLIRVMAEAPTQEVCDAYVHRIVEVVKAEVGAE | not soluble |
| MGLDDALIFTRVVEYHSFTQAAQSLGMQKSTVSRRIALLEERLGVRLLNRTTRKLRLTEVGQAYYERCRQIMHDFAEAEQAVMQLQQAPSGLLRITSPIEFGQMFLASLLGDFMRQYPQITAEVELASRSVDPLQEGVDIVIMVGQPEDSTLVARRLLSTSRWLCASPDYLAAHGTPTSVAELAGHRAVLLSTDSQRYWPLSGDSLPCQRVLSCNNITFAREAVVAGAGIAALPALICAESVHSGRLVRLLADVPLPVGELYAVYPSRRFQAMKVKAFLDFLISRLPADTGRLLEPEAARLITSRP | not soluble |
| MGLFTTRQLLGYTEQKVKFNPLFLSLFFRRTVTFPTQEVMLDKITGKTPIAAYVSPVVGGKVLRNRGGETRVLRPGYVKPKHEVNYAQVVERLPGEDPARLNDPAYRRLRILTDNLKQEEKAIVQVEEMQAVSAVLNGKYTMQGEQFDTVEVDFGRSAGNNIIQATGKKWSEQDRETFDPTYDLDMYCDQASGLINIAVMDGKVWRLLNGFKLFREKLDTRRGSNSQLETAVKDLGAVVSFKGYYGDLAIVVAKTSYVADNGTEKRYLPEGTLVLGNTAAEGIRCYGAIQDSQALAEGIVAATRYPKHWLTVGDPANEYTMTQSAPLMVLPDPDEFVIVTVG | not soluble |
| MGLLKDLSSARDKIERIYGLNKEKLLLLAKVKEGFETSVFDFPFKNIQPDSPYFVCLDPPCKKESAYNKVIGDKNRTVYHEINKTEFENMIKLRTKRLKLLIGEVDAEVSTGDKIEFPVLANGKRRGFIYNVGGLVTDIAWLNIEENTDIGKDIQYLAVAVSQYMDEPLNEHLEMFDKEKHSSCIQIFKMNTSTLHCVKVQTIVHSFGEVWDLKWHEGCHAPHLVGCLSFVSQEGTINFLEIIDNATDVHVFKMCEKPSLTLSLADSLITTFDFLSPTTVVCGFKNGFVAEFDLTDPEVPSFYDQVHDSYILSVSTAYSDFEDTVVSTVAVDGYFYIFNPKDIATTKTTVSRFRGSNLVPVVYCPQIYSYIYSDGASSLRAVPSRAAFAVHPLVSRETTITAIGVSRLHPMVLAGSADGSLIITNAARRLLHGIKNSSATQKSLRLWKWDYSIKDDKYRIDSSYEVYPLTVNDVSKAKIDAHGINITCTKWNETSAGGKCYAFSNSAGLLTLEYLSLEHHHHHH | soluble |
| MGLLVDGRWQDQWYESSKDGAFQRENAQRRNWVTRDGQAGPSGEGGFAAEAGRYHLYVSLACPWAHRTLILRKLKGLEKLIDVSVVSWLMLENGWTFDQQKGSSGDALDDFQFFHQRYTADDPRYTGRVTVPVLWDKQQQRIVSNESAEIIRMFNAAFDELTGNTLDFYPSALQSSIDELNEQIYPKVNNGVYRAGFATSQGAYEEAFDDVFAELDVLENLLGEKRYLTGKHLTEADIRLFTTIVRFDAVYYSHFKCNLRRIADYPNLSNWLRELYQWPGIAETVDFEHIKGHYYASHRTINPTGIIPKGPALDLQAGHDRERLSGEGAWSK | not soluble |
